Measurements as given in paper PMC7726437 (2020).

Columns and labels:
Assay in all cases: BLI
[1] = biological target: T1, anti-idiotype vNAR-Fc variant S9 (bamboo shark, biotin (EZ-Link Sulfo-NHS-LC-Biotin) in the cellular binding assay only)
T1 chain: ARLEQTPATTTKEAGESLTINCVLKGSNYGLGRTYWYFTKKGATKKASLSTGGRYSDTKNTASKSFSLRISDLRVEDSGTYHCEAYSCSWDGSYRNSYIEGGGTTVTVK

[2] = biological target: T2, anti-idiotype vNAR-Fc variant S7 (bamboo shark)
T2 chain: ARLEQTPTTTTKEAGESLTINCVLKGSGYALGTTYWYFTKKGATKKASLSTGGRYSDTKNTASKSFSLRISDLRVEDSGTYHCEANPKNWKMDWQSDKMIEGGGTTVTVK

[3] = biological target: T3, anti-idiotype vNAR-Fc variant S4 (bamboo shark)
T3 chain: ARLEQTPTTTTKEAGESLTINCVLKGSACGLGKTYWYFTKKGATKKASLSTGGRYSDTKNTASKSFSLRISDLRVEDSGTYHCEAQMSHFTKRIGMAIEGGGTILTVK

[4] = biological target: T4, anti-idiotype vNAR-Fc variant S2 (bamboo shark, biotin (EZ-Link Sulfo-NHS-LC-Biotin) in the cellular binding assay only)
T4 chain: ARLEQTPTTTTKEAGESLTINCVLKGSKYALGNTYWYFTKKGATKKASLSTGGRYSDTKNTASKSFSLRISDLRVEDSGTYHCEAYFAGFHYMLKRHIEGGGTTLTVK

B1: soluble recombinant B-cell receptor (BCR) of lymphoma cell line SUP-B8, produced as full-length IgG (antibody, V domains shown)
VH: LVQSGGEVKKPGASVKVSCKASGYTFHSYGITWVRQAPGQGLEWMGWINGYNGYTNYAQKLQDRVTMTTNTSTNTVYMEVRSLRSDDTAVYYCARDDCSGDNCYMSAYWGQGTVVTVSS
VL: QSVLTQPPSASGTPGQRVTISCSGSSSNIASNYVYWYQQLPGMAPKLLIYRDNQRPSGVPDRFSGSRSGTSASLAISGLRSDDEADYYCATWDDSLSGWVFGGGTKLTVL
- Kd [1]: 11 nM
- Kd [2]: 1.9 nM
- Kd [3]: 5.3 nM
- Kd [4]: 4.5 nM
